{"source": "patent US20230399394A1", "about": "(SUNSHINE GUOJIAN PHARMACEUTICAL SHANGHAI, published 2023)", "binders": {"B1": {"name": "874F7-Hu1 (antibody, human IgG4 S228P, kappa)", "heavy": "not shown", "light": "DIQMTQSPSSVSASVGDRVTITCLASQTIGAWLAWYQQKPGKSPKLLIYAATRLADGVPSRFSGSGSGTDFTLTISSLQPEDFATYYCQQLDSSPYTFGQGTKVEIKRTVAAPSVFIFPPSDEQLKSGTASVVCLLNNFYPREAKVQWKVDNALQSGNSQESVTEQDSKDSTYSLSSTLTLSKADYEKHKVYACEVTHQGLSSPVTKSFNRGEC", "notes": "also called 874F7-Hul; humanized antibody 874F7-Hu1"}}, "biological_target": "T1, IL-33 mutant protein E44A (human, UniProt O95760 112-270)", "T1 construct": "Prokaryotic expression", "T1 chain": "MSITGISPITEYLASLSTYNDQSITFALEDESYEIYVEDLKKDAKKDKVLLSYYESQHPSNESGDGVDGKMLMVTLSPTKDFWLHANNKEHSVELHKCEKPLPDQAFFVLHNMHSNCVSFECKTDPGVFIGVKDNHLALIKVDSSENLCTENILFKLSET", "assay": "ELISA as Example 9; row E44A against WT-1", "description": "SA protein was diluted to 2 μg/mL to coat ELISA plate at 100 μL/well overnight at 4° C. The plate was washed with PBST (PBS containing 0.05% Tween20) for 3 times, and blocked with 2% BSA prepared in PBS at 200 μL/well, at room temperature for 2 h. After the plate was washed twice with PBST, IL-33-his-biotin protein was diluted to 1 μg/mL with 1% BSA prepared in PBST, and was added to ELISA plate at 100 μL/well. The plate was incubated at room temperature for 1 h, and each monoclonal antibody was diluted with 1% BSA prepared in PBST in a 3-fold gradient. The highest concentration of antibody was 10 μg/mL, and the antibody was diluted for 12 gradients. Each diluted monoclonal antibody was added to ELISA wells with 100 μL/well, and the plate was incubated at room temperature for 1 h. Each sample was added to duplicate wells in parallel. The plate was washed with PBST for 3 times, and HRP-anti human IgG Fc secondary antibody prepared with PBST was diluted at an appropriate ratio, and was added to ELISA wells at 100 μL/well. […] Each reaction solution was shaken uniformly and OD450 nm was read on a microplate reader. The data was analyzed and EC₅₀ was calculated.\nSubsequently, according to the experimental method of Example 9, the affinity of the above mutant proteins to 874F7-Hu1 was determined, and IL-33 proteins (WT-1, WT-2, WT-3, and WT-4) without any mutation were set as controls.", "data": [{"binder": "B1", "values": [{"measurement": "Affinity decline ratio", "result": 0.6, "unit": "fold"}]}]}
